Experimental data taken from US20230220021A1 (UNIVERSITY OF COPENHAGEN, published 2023).
[ ]: non-standard residue; d: D form.

What follows are binders tested against T1, (7× His)-PSD-95-PDZ2 wild type (UniProt P78352 160-246) (assay: FP competition).
T1 construct: domain: PDZ2; recombinant from E. coli; also called PSD-95-PDZ2 WT; not shown: 7x His tag
T1 sequence (P78352 160-246): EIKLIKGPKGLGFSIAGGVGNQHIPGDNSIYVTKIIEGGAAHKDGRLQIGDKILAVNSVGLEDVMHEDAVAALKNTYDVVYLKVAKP

Ki [nM] | Relative Ki (Ki mut/Ki WT) | Binder
3540 | 2.36 | cyclo(THAETTFTGDGTPKTIRVTQ[dP]GQ) (SMILES CC[C@H](C)[C@@H]1NC(=O)[C@H]([C@@H](C)O)NC(=O)[C@H](CCCCN)NC(=O)[C@@H]2CCCN2C(=O)[C@H]([C@@H](C)O)NC(=O)CNC(=O)[C@H](CC(=O)O)NC(=O)CNC(=O)[C@H]([C@@H](C)O)NC(=O)[C@H](Cc2ccccc2)NC(=O)[C@H]([C@@H](C)O)NC(=O)[C@H]([C@@H](C)O)NC(=O)[C@H](CCC(=O)O)NC(=O)[C@H](C)NC(=O)[C@H](Cc2c[nH]cn2)NC(=O)[C@H]([C@@H](C)O)NC(=O)[C@H](CCC(N)=O)NC(=O)CNC(=O)[C@H]2CCCN2C(=O)[C@H](CCC(N)=O)NC(=O)[C@H]([C@@H](C)O)NC(=O)[C@H](C(C)C)NC(=O)[C@H](CCCNC(=N)N)NC1=O) [cyclic nNOS β-hairpin peptide L107A]
1610 | 1.07 | cyclo(THLETTFTGDGTAKTIRVTQ[dP]GQ) (SMILES CC[C@H](C)[C@@H]1NC(=O)[C@H]([C@@H](C)O)NC(=O)[C@H](CCCCN)NC(=O)[C@H](C)NC(=O)[C@H]([C@@H](C)O)NC(=O)CNC(=O)[C@H](CC(=O)O)NC(=O)CNC(=O)[C@H]([C@@H](C)O)NC(=O)[C@H](Cc2ccccc2)NC(=O)[C@H]([C@@H](C)O)NC(=O)[C@H]([C@@H](C)O)NC(=O)[C@H](CCC(=O)O)NC(=O)[C@H](CC(C)C)NC(=O)[C@H](Cc2c[nH]cn2)NC(=O)[C@H]([C@@H](C)O)NC(=O)[C@H](CCC(N)=O)NC(=O)CNC(=O)[C@H]2CCCN2C(=O)[C@H](CCC(N)=O)NC(=O)[C@H]([C@@H](C)O)NC(=O)[C@H](C(C)C)NC(=O)[C@H](CCCNC(=N)N)NC1=O) [cyclic nNOS β-hairpin peptide P117A]
1510 | 1.01 | cyclo(THLETTFTGDGTPKTIRVTA[dP]GQ) (SMILES CC[C@H](C)[C@@H]1NC(=O)[C@H]([C@@H](C)O)NC(=O)[C@H](CCCCN)NC(=O)[C@@H]2CCCN2C(=O)[C@H]([C@@H](C)O)NC(=O)CNC(=O)[C@H](CC(=O)O)NC(=O)CNC(=O)[C@H]([C@@H](C)O)NC(=O)[C@H](Cc2ccccc2)NC(=O)[C@H]([C@@H](C)O)NC(=O)[C@H]([C@@H](C)O)NC(=O)[C@H](CCC(=O)O)NC(=O)[C@H](CC(C)C)NC(=O)[C@H](Cc2c[nH]cn2)NC(=O)[C@H]([C@@H](C)O)NC(=O)[C@H](CCC(N)=O)NC(=O)CNC(=O)[C@H]2CCCN2C(=O)[C@H](C)NC(=O)[C@H]([C@@H](C)O)NC(=O)[C@H](C(C)C)NC(=O)[C@H](CCCNC(=N)N)NC1=O) [cyclic nNOS β-hairpin peptide Q124A]
2470 | 1.65 | cyclo(THLETTFTGDGTPKTIAVTQ[dP]GQ) (SMILES CC[C@H](C)[C@@H]1NC(=O)[C@H]([C@@H](C)O)NC(=O)[C@H](CCCCN)NC(=O)[C@@H]2CCCN2C(=O)[C@H]([C@@H](C)O)NC(=O)CNC(=O)[C@H](CC(=O)O)NC(=O)CNC(=O)[C@H]([C@@H](C)O)NC(=O)[C@H](Cc2ccccc2)NC(=O)[C@H]([C@@H](C)O)NC(=O)[C@H]([C@@H](C)O)NC(=O)[C@H](CCC(=O)O)NC(=O)[C@H](CC(C)C)NC(=O)[C@H](Cc2c[nH]cn2)NC(=O)[C@H]([C@@H](C)O)NC(=O)[C@H](CCC(N)=O)NC(=O)CNC(=O)[C@H]2CCCN2C(=O)[C@H](CCC(N)=O)NC(=O)[C@H]([C@@H](C)O)NC(=O)[C@H](C(C)C)NC(=O)[C@H](C)NC1=O) [cyclic nNOS β-hairpin peptide R121A]
1500 | 1 | cyclo(AHLETTFTGDGTPKTIRVTQ[dP]GQ) (SMILES CC[C@H](C)[C@@H]1NC(=O)[C@H]([C@@H](C)O)NC(=O)[C@H](CCCCN)NC(=O)[C@@H]2CCCN2C(=O)[C@H]([C@@H](C)O)NC(=O)CNC(=O)[C@H](CC(=O)O)NC(=O)CNC(=O)[C@H]([C@@H](C)O)NC(=O)[C@H](Cc2ccccc2)NC(=O)[C@H]([C@@H](C)O)NC(=O)[C@H]([C@@H](C)O)NC(=O)[C@H](CCC(=O)O)NC(=O)[C@H](CC(C)C)NC(=O)[C@H](Cc2c[nH]cn2)NC(=O)[C@H](C)NC(=O)[C@H](CCC(N)=O)NC(=O)CNC(=O)[C@H]2CCCN2C(=O)[C@H](CCC(N)=O)NC(=O)[C@H]([C@@H](C)O)NC(=O)[C@H](C(C)C)NC(=O)[C@H](CCCNC(=N)N)NC1=O) [cyclic nNOS β-hairpin peptide T105A]
3930 | 2.62 | cyclo(THLETAFTGDGTPKTIRVTQ[dP]GQ) (SMILES CC[C@H](C)[C@@H]1NC(=O)[C@H]([C@@H](C)O)NC(=O)[C@H](CCCCN)NC(=O)[C@@H]2CCCN2C(=O)[C@H]([C@@H](C)O)NC(=O)CNC(=O)[C@H](CC(=O)O)NC(=O)CNC(=O)[C@H]([C@@H](C)O)NC(=O)[C@H](Cc2ccccc2)NC(=O)[C@H](C)NC(=O)[C@H]([C@@H](C)O)NC(=O)[C@H](CCC(=O)O)NC(=O)[C@H](CC(C)C)NC(=O)[C@H](Cc2c[nH]cn2)NC(=O)[C@H]([C@@H](C)O)NC(=O)[C@H](CCC(N)=O)NC(=O)CNC(=O)[C@H]2CCCN2C(=O)[C@H](CCC(N)=O)NC(=O)[C@H]([C@@H](C)O)NC(=O)[C@H](C(C)C)NC(=O)[C@H](CCCNC(=N)N)NC1=O) [cyclic nNOS β-hairpin peptide T110A]
1770 | 1.18 | cyclo(THLETTFAGDGTPKTIRVTQ[dP]GQ) (SMILES CC[C@H](C)[C@@H]1NC(=O)[C@H]([C@@H](C)O)NC(=O)[C@H](CCCCN)NC(=O)[C@@H]2CCCN2C(=O)[C@H]([C@@H](C)O)NC(=O)CNC(=O)[C@H](CC(=O)O)NC(=O)CNC(=O)[C@H](C)NC(=O)[C@H](Cc2ccccc2)NC(=O)[C@H]([C@@H](C)O)NC(=O)[C@H]([C@@H](C)O)NC(=O)[C@H](CCC(=O)O)NC(=O)[C@H](CC(C)C)NC(=O)[C@H](Cc2c[nH]cn2)NC(=O)[C@H]([C@@H](C)O)NC(=O)[C@H](CCC(N)=O)NC(=O)CNC(=O)[C@H]2CCCN2C(=O)[C@H](CCC(N)=O)NC(=O)[C@H]([C@@H](C)O)NC(=O)[C@H](C(C)C)NC(=O)[C@H](CCCNC(=N)N)NC1=O) [cyclic nNOS β-hairpin peptide T112A]
1240 | 0.83 | cyclo(THLETTFTGDGAPKTIRVTQ[dP]GQ) (SMILES CC[C@H](C)[C@@H]1NC(=O)[C@H]([C@@H](C)O)NC(=O)[C@H](CCCCN)NC(=O)[C@@H]2CCCN2C(=O)[C@H](C)NC(=O)CNC(=O)[C@H](CC(=O)O)NC(=O)CNC(=O)[C@H]([C@@H](C)O)NC(=O)[C@H](Cc2ccccc2)NC(=O)[C@H]([C@@H](C)O)NC(=O)[C@H]([C@@H](C)O)NC(=O)[C@H](CCC(=O)O)NC(=O)[C@H](CC(C)C)NC(=O)[C@H](Cc2c[nH]cn2)NC(=O)[C@H]([C@@H](C)O)NC(=O)[C@H](CCC(N)=O)NC(=O)CNC(=O)[C@H]2CCCN2C(=O)[C@H](CCC(N)=O)NC(=O)[C@H]([C@@H](C)O)NC(=O)[C@H](C(C)C)NC(=O)[C@H](CCCNC(=N)N)NC1=O) [cyclic nNOS β-hairpin peptide T116A]
17000 | 11.3 | cyclo(THLETTFTGDGTPKAIRVTQ[dP]GQ) (SMILES CC[C@H](C)[C@@H]1NC(=O)[C@H](C)NC(=O)[C@H](CCCCN)NC(=O)[C@@H]2CCCN2C(=O)[C@H]([C@@H](C)O)NC(=O)CNC(=O)[C@H](CC(=O)O)NC(=O)CNC(=O)[C@H]([C@@H](C)O)NC(=O)[C@H](Cc2ccccc2)NC(=O)[C@H]([C@@H](C)O)NC(=O)[C@H]([C@@H](C)O)NC(=O)[C@H](CCC(=O)O)NC(=O)[C@H](CC(C)C)NC(=O)[C@H](Cc2c[nH]cn2)NC(=O)[C@H]([C@@H](C)O)NC(=O)[C@H](CCC(N)=O)NC(=O)CNC(=O)[C@H]2CCCN2C(=O)[C@H](CCC(N)=O)NC(=O)[C@H]([C@@H](C)O)NC(=O)[C@H](C(C)C)NC(=O)[C@H](CCCNC(=N)N)NC1=O) [cyclic nNOS β-hairpin peptide T119A]
1550 | 1.03 | cyclo(THLETTFTGDGTPKTIRVAQ[dP]GQ) (SMILES CC[C@H](C)[C@@H]1NC(=O)[C@H]([C@@H](C)O)NC(=O)[C@H](CCCCN)NC(=O)[C@@H]2CCCN2C(=O)[C@H]([C@@H](C)O)NC(=O)CNC(=O)[C@H](CC(=O)O)NC(=O)CNC(=O)[C@H]([C@@H](C)O)NC(=O)[C@H](Cc2ccccc2)NC(=O)[C@H]([C@@H](C)O)NC(=O)[C@H]([C@@H](C)O)NC(=O)[C@H](CCC(=O)O)NC(=O)[C@H](CC(C)C)NC(=O)[C@H](Cc2c[nH]cn2)NC(=O)[C@H]([C@@H](C)O)NC(=O)[C@H](CCC(N)=O)NC(=O)CNC(=O)[C@H]2CCCN2C(=O)[C@H](CCC(N)=O)NC(=O)[C@H](C)NC(=O)[C@H](C(C)C)NC(=O)[C@H](CCCNC(=N)N)NC1=O) [cyclic nNOS β-hairpin peptide T123A]
2230 | 1.49 | cyclo(THLETTFTGDGTPKTIRATQ[dP]GQ) (SMILES CC[C@H](C)[C@@H]1NC(=O)[C@H]([C@@H](C)O)NC(=O)[C@H](CCCCN)NC(=O)[C@@H]2CCCN2C(=O)[C@H]([C@@H](C)O)NC(=O)CNC(=O)[C@H](CC(=O)O)NC(=O)CNC(=O)[C@H]([C@@H](C)O)NC(=O)[C@H](Cc2ccccc2)NC(=O)[C@H]([C@@H](C)O)NC(=O)[C@H]([C@@H](C)O)NC(=O)[C@H](CCC(=O)O)NC(=O)[C@H](CC(C)C)NC(=O)[C@H](Cc2c[nH]cn2)NC(=O)[C@H]([C@@H](C)O)NC(=O)[C@H](CCC(N)=O)NC(=O)CNC(=O)[C@H]2CCCN2C(=O)[C@H](CCC(N)=O)NC(=O)[C@H]([C@@H](C)O)NC(=O)[C@H](C)NC(=O)[C@H](CCCNC(=N)N)NC1=O) [cyclic nNOS β-hairpin peptide V122A]

Biological target: T1, (7× His)-PSD-95-PDZ2 wild type
Test: FP competition
Remark: another data set of the same source
Method: Fluorescence polarization (FP). FP assays were performed in a 384-well plate format. Fluorescence polarization was measured using a Safire 2 plate reader. The instrument Z-factor was optimized for each assay. The G-factor was calibrated to an initial milli polarization value of 20. […] Every measurement was performed in NaPI 50 mM, 50 mM NaCl and 1% BSA at pH 7.2, 25° C. […] The curves were done in triplicates. Then, the polarization was fitted into a one-site binding model using Prism software 8.0 (GraphPad), from which the Kd can be measured. […] The mili polarization (mP) values were plotted as a function of peptide concentration and fitted to a sigmoidal dose-response curve using Prism software 8.0 (GraphPad). The Kᵢ values were calculated according to Nikolovska-Coleska Z. et al.⁴⁰⁻⁴¹

Ki [nM] | Binder
1470 | THLETXFTGDGTPKTIRVTQPGQ (cyclic; D-Pro; N-methyl Thr 110) [cyclic nNOS β-hairpin peptide N-Me-T110]
1080 | THLETTFXGDGTPKTIRVTQPGQ (cyclic; D-Pro; N-methyl Thr 112) [cyclic nNOS β-hairpin peptide N-Me-T112]
6190 | THLETTFTXDGTPKTIRVTQPGQ (cyclic; D-Pro; N-methyl Gly 113) [cyclic nNOS β-hairpin peptide N-Me-G113]
620 | THLETTFTGXGTPKTIRVTQPGQ (cyclic; D-Pro; N-methyl Asp 114) [cyclic nNOS β-hairpin peptide N-Me-D114]
